This passage reports MIS level left after absorption results from US5661126.

For the assay, the target named is recombinant human Mullerian Inhibiting Substance (human) (UniProt P03971). Description: absorption of DG-MIS with IgG (1:3) and Protein A Sepharose, MIS in supernatant by ELISA; MIS alone 9.0 nM.

With “normal rabbit IgG (Dako Corporation, Denmark Lot 108) (polyclonal serum or antibody)”, the MIS level left after absorption is 8.8 nM.
